The results in this text go back to PMC4537477.

The target in test [1] is histone H3-H4 heterodimer (human) (UniProt P68431). In words: SEC; Superdex 200 10/300 GL; complex obtained at 0.5 mol/L NaCl; eluted at 14.38 mL, apparent molecular weight about 60 kDa; apparent stoichiometry also by Coomassie-stained SDS-PAGE. (SEC sorts molecules by how far they enter the pores of the column.)
In test [2] the target is full-length human histone H3 (human) (UniProt P68431). The test is described as above.

On to “N-terminal domain of human MCM2 (aa 63–154) (from UniProt P49736 63-154) (domain or fragment)”, for which the stoichiometry N (usually the number of molecules, sites or subunits per partner or assembly) in test [1] amounted to 1.
In the case of “full-length human histone H4 (from UniProt P62805 1-103) (natural protein)”, the stoichiometry N in test [2] came to 1.
As to “globular domain of ASF1a (aa 1–157) (from UniProt Q9Y294 1-157) (domain or fragment)”, the stoichiometry N in test [1] amounted to 1.
